Reference: publication PMC4299599, “Quantification of cytosolic interactions identifies Ede1 oligomers as key organizers of endocytosis” (Molecular Systems Biology, 2014)

T1: Pan1 (S. cerevisiae, UniProt P32521 1-1480)
T1 construct: Pan1, S. cerevisiae; also called Pan1-1myeGFP; Pan1-3mCherry; source: chromosomally tagged at the endogenous locus, in the cytoplasm of living S. cerevisiae cells
T1 sequence (looked up): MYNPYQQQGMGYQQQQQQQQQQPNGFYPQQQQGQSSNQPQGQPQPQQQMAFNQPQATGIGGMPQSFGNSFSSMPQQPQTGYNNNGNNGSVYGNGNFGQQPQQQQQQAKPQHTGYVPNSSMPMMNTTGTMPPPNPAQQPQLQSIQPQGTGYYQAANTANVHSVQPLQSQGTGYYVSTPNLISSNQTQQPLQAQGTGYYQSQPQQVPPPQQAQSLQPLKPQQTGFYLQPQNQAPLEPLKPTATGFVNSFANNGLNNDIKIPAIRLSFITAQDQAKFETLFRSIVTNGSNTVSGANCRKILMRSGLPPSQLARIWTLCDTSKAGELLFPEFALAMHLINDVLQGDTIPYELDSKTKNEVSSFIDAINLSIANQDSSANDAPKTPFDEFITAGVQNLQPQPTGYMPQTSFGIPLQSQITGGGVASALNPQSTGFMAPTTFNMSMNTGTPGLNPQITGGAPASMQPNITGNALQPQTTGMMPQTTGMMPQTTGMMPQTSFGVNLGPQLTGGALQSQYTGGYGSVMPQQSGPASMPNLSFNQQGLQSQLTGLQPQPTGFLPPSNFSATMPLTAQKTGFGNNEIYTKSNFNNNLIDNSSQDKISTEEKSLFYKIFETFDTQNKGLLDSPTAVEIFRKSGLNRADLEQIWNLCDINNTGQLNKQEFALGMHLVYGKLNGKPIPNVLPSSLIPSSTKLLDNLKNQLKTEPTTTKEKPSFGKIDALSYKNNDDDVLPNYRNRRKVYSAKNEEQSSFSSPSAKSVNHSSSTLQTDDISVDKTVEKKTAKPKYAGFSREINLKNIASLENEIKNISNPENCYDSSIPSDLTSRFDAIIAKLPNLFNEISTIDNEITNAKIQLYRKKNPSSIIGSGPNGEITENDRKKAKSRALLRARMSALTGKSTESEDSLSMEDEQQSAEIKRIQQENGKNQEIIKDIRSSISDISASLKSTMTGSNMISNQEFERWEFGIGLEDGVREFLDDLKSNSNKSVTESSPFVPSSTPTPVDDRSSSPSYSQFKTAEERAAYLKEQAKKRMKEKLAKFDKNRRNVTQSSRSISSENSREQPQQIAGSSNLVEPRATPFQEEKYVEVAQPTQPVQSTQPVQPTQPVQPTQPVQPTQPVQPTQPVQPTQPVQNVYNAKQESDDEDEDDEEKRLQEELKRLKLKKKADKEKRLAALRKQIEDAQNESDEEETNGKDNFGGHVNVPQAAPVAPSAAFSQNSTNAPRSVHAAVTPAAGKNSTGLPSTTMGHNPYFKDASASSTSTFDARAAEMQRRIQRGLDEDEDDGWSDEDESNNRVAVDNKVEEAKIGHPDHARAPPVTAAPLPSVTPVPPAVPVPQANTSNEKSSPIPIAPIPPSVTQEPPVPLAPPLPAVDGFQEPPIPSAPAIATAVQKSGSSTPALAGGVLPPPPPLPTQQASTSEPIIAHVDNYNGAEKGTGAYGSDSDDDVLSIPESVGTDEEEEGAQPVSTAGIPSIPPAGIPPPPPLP

B1: Ede1 (Ede1-3myeGFP / Ede1-3mCherry) (natural protein, S. cerevisiae, UniProt P34216 1-1381, looked up)
chain: MASITFRTPLSSQEQAFYNQKFHQLDTEDLGVVTGEAVRPLFASSGLPGQLLSQVWATVDIDNKGFLNLNEFSAALRMIAQLQNAPNQPISAALYESTPTQLASFSINQNPAPMQSGSATGNTNNTDIPALSSNDIAKFSQLFDRTAKGAQTVAGDKAKDIFLKARLPNQTLGEIWALCDRDASGVLDKSEFIMAMYLIQLCMSHHPSMNTPPAVLPTQLWDSIRLEPVVVNQPNRTTPLSANSTGVSSLTRHSTISRLSTGAFSNAASDWSLSFEKKQQFDAIFDSLDKQHAGSLSSAVLVPFFLSSRLNQETLATIWDLADIHNNAEFTKLEFAIAMFLIQKKNAGVELPDVIPNELLQSPALGLYPPNPLPQQQSAPQIAIPSRASKPSLQDMPHQVSAPAVNTQPTVPQVLPQNSNNGSLNDLLALNPSFSSPSPTKAQTVVQNNTNNSFSYDNNNGQATLQQQQPQQPPPLTHSSSGLKKFTPTSNFGQSIIKEEPEEQEQLRESSDTFSAQPPPVPKHASSPVKRTASTTLPQVPNFSVFSMPAGAATSAATGAAVGAAVGAAALGASAFSRSSNNAFKNQDLFADGEASAQLSNATTEMANLSNQVNSLSKQASITNDKKSRATQELKRVTEMKNSIQIKLNNLRSTHDQNVKQTEQLEAQVLQVNKENETLAQQLAVSEANYHAAESKLNELTTDLQESQTKNAELKEQITNLNSMTASLQSQLNEKQQQVKQERSMVDVNSKQLELNQVTVANLQKEIDGLGEKISVYLTKQKELNDYQKTVEEQHAQLQAKYQDLSNKDTDLTDREKQLEERNRQIEEQENLYHQHVSKLQEMFDDLSQRKASFEKADQELKERNIEYANNVRELSERQMNLAMGQLPEDAKDIIAKSASNTDTTTKEATSRGNVHEDTVSKFVETTVENSNLNVNRVKDDEEKTERTESDVFDRDVPTLGSQSDSENANTNNGTQSGNETANPNLTETLSDRFDGDLNEYGIPRSQSLTSSVANNAPQSVRDDVELPETLEERDTINNTANRDNTGNLSHIPGEWEATPATASTDVLSNETTEVIEDGSTTKRANSNEDGESVSSIQESPKISAQPKAKTINEEFPPIQELHIDESDSSSSDDDEFEDTREIPSATVKTLQTPYNAQPTSSLEIHTEQVIKYPAPGTSPSHNEGNSKKASTNSILPVKDEFDDEFAGLEQAAVEEDNGADSESEFENVANAGSMEQFETIDHKDLDDELQMNAFTGTLTSSSNPTIPKPQVQQQSTSDPAQVSNDEWDEIFAGFGNSKAEPTKVATPSIPQQPIPLKNDPIVDASLSKGPIVNRGVATTPKSLAVEELSGMGFTEEEAHNALEKCNWDLEAATNFLLDSA
notes: Ede1, S. cerevisiae, homolog of mammalian Eps15; expressed from its own locus; also called wild-type Ede1; full-length Ede1; source: S. cerevisiae, chromosomally tagged at the endogenous locus, in living cells; not shown: 3myeGFP, C-terminal, kept; 3mCherry, C-terminal, kept
B2: Bbc1 (natural protein, S. cerevisiae, UniProt P47068 1-1157, looked up)
chain: MSEPEVPFKVVAQFPYKSDYEDDLNFEKDQEIIVTSVEDAEWYFGEYQDSNGDVIEGIFPKSFVAVQGSEVGKEAESSPNTGSTEQRTIQPEVEQKDLPEPISPETKKETLSGPVPVPAATVPVPAATVPVPAATAVSAQVQHDSSSGNGERKVPMDSPKLKARLSMFNQDITEQVPLPKSTHLDLENIPVKKTIVADAPKYYVPPGIPTNDTSNLERKKSLKENEKKIVPEPINRAQVESGRIETENDQLKKDLPQMSLKERIALLQEQQRLQAAREEELLRKKAKLEQEHERSAVNKNEPYTETEEAEENEKTEPKPEFTPETEHNEEPQMELLAHKEITKTSREADEGTNDIEKEQFLDEYTKENQKVEESQADEARGENVAEESEIGYGHEDREGDNDEEKEEEDSEENRRAALRERMAKLSGASRFGAPVGFNPFGMASGVGNKPSEEPKKKQHKEKEEEEPEQLQELPRAIPVMPFVDPSSNPFFRKSNLSEKNQPTETKTLDPHATTEHEQKQEHGTHAYHNLAAVDNAHPEYSDHDSDEDTDDHEFEDANDGLRKHSMVEQAFQIGNNESENVNSGEKIYPQEPPISHRTAEVSHDIENSSQNTTGNVLPVSSPQTRVARNGSINSLTKSISGENRRKSINEYHDTVSTNSSALTETAQDISMAAPAAPVLSKVSHPEDKVPPHPVPSAPSAPPVPSAPSVPSAPPVPPAPPALSAPSVPPVPPVPPVSSAPPALSAPSIPPVPPTPPAPPAPPAPLALPKHNEVEEHVKSSAPLPPVSEEYHPMPNTAPPLPRAPPVPPATFEFDSEPTATHSHTAPSPPPHQNVTASTPSMMSTQQRVPTSVLSGAEKESRTLPPHVPSLTNRPVDSFHESDTTPKVASIRRSTTHDVGEISNNVKIEFNAQERWWINKSAPPAISNLKLNFLMEIDDHFISKRLHQKWVVRDFYFLFENYSQLRFSLTFNSTSPEKTVTTLQERFPSPVETQSARILDEYAQRFNAKVVEKSHSLINSHIGAKNFVSQIVSEFKDEVIQPIGARTFGATILSYKPEEGIEQLMKSLQKIKPGDILVIRKAKFEAHKKIGKNEIINVGMDSAAPYSSVVTDYDFTKNKFRVIENHEGKIIQNSYKLSHMKSGKLKVFRIVARGYVGW
notes: Bbc1, S. cerevisiae; also called Bbc1-3myeGFP; Bbc1-3mCherry; source: chromosomally tagged at the endogenous locus, in the cytoplasm of living S. cerevisiae cells
B3: Sla2 (natural protein, S. cerevisiae, UniProt P33338 1-968, looked up)
chain: MSRIDSDLQKALKKACSVEETAPKRKHVRACIVYTWDHQSSKAVFTTLKTLPLANDEVQLFKMLIVLHKIIQEGHPSALAEAIRDRDWIRSLGRVHSGGSSYSKLIREYVRYLVLKLDFHAHHRGFNNGTFEYEEYVSLVSVSDPDEGYETILDLMSLQDSLDEFSQIIFASIQSERRNTECKISALIPLIAESYGIYKFITSMLRAMHRQLNDAEGDAALQPLKERYELQHARLFEFYADCSSVKYLTTLVTIPKLPVDAPDVFLINDVDESKEIKFKKREPSVTPARTPARTPTPTPPVVAEPAISPRPVSQRTTSTPTGYLQTMPTGATTGMMIPTATGAANAIFPQATAQMQPDFWANQQAQFANEQNRLEQERVQQLQQQQAQQELFQQQLQKAQQDMMNMQLQQQNQHQNDLIALTNQYEKDQALLQQYDQRVQQLESEITTMDSTASKQLANKDEQLTALQDQLDVWERKYESLAKLYSQLRQEHLNLLPRFKKLQLKVNSAQESIQKKEQLEHKLKQKDLQMAELVKDRDRARLELERSINNAEADSAAATAAAETMTQDKMNPILDAILESGINTIQESVYNLDSPLSWSGPLTPPTFLLSLLESTSENATEFATSFNNLIVDGLAHGDQTEVIHCVSDFSTSMATLVTNSKAYAVTTLPQEQSDQILTLVKRCAREAQYFFEDLMSENLNQVGDEEKTDIVINANVDMQEKLQELSLAIEPLLNIQSVKSNKETNPHSELVATADKIVKSSEHLRVDVPKPLLSLALMIIDAVVALVKAAIQCQNEIATTTSIPLNQFYLKNSRWTEGLISAAKAVAGATNVLITTASKLITSEDNENTSPEQFIVASKEVAASTIQLVAASRVKTSIHSKAQDKLEHCSKDVTDACRSLGNHVMGMIEDDHSTSQQQQPLDFTSEHTLKTAEMEQQVEILKLEQSLSNARKRLGEIRRHAYYNQDDD
notes: Sla2, S. cerevisiae; also called Sla2-3myeGFP; Sla2-3mCherry; source: chromosomally tagged at the endogenous locus, in the cytoplasm of living S. cerevisiae cells
B4: ede1Δ591–1381 (myeGFP / mCherry fusions) (domain or fragment, S. cerevisiae, UniProt P34216 1-590, looked up)
chain: MASITFRTPLSSQEQAFYNQKFHQLDTEDLGVVTGEAVRPLFASSGLPGQLLSQVWATVDIDNKGFLNLNEFSAALRMIAQLQNAPNQPISAALYESTPTQLASFSINQNPAPMQSGSATGNTNNTDIPALSSNDIAKFSQLFDRTAKGAQTVAGDKAKDIFLKARLPNQTLGEIWALCDRDASGVLDKSEFIMAMYLIQLCMSHHPSMNTPPAVLPTQLWDSIRLEPVVVNQPNRTTPLSANSTGVSSLTRHSTISRLSTGAFSNAASDWSLSFEKKQQFDAIFDSLDKQHAGSLSSAVLVPFFLSSRLNQETLATIWDLADIHNNAEFTKLEFAIAMFLIQKKNAGVELPDVIPNELLQSPALGLYPPNPLPQQQSAPQIAIPSRASKPSLQDMPHQVSAPAVNTQPTVPQVLPQNSNNGSLNDLLALNPSFSSPSPTKAQTVVQNNTNNSFSYDNNNGQATLQQQQPQQPPPLTHSSSGLKKFTPTSNFGQSIIKEEPEEQEQLRESSDTFSAQPPPVPKHASSPVKRTASTTLPQVPNFSVFSMPAGAATSAATGAAVGAAVGAAALGASAFSRSSNNAFKNQDLF
notes: 1myeGFP fusion for FCS; diploid with one myeGFP and one mCherry allele for FCCS; Each copy carries one tag; also called ede1^Δ591–1391; source: S. cerevisiae, endogenously expressed truncation mutant, in living cells; not shown: myeGFP, C-terminal, kept; mCherry, C-terminal, kept

Legend:
[1] = biological target: the molecule itself; test: FCS molecular brightness (counts per particle per second); living yeast cells, cytoplasm; brightness of GFP-tagged particles compared with 3myeGFP and Ent2-3myeGFP (monomers) or with wild-type Ede1; average of all particles
[2] = biological target: the molecule itself; test: fluorescence cross-correlation spectroscopy (FCCS); self-interaction: living diploid yeast cells with one allele fused to (3)myeGFP and one to (3)mCherry, cytoplasm; apparent (effective) KD, to be taken as the upper limit since complexes of one colour are not seen
[3] = biological target: the molecule itself; test: fluorescence cross-correlation spectroscopy (FCCS); in the cytoplasm of living yeast cells; first-named protein green (3myeGFP or 1myeGFP; eGFP for Don1), second red (3mCherry); self-interaction in diploid strains with one allele of each colour; apparent or effective KD (Kdeff) from single-cell measurements; only Kdeff values < 1000 nM are shown; values for self-interactions are upper limits
Pan1 = biological target: T1, Pan1; test: as above; details: partners not purified

Binder	molecular brightness per particle relative to 3myeGFP [1]	Kd [2]	Kd [3]	Kd (Pan1)
B1	~2.5 fold	127 nM	–	–
B2	–	–	115 nM	–
B3	–	–	133 nM	539 nM
B4	–	> 1000 nM	–	–
